Patent publication US20110263454A1, “Methods of Identifying Functional Characteristics of Promoters, Transcription Modifying Proteins and Transcription Modulating Agents” (Salk Institute for Biological Studies, priority 2008, published 2011)

B1: RVRb: Rev-Erb β (NR1D2, alternative name RVR), cDNA driver (protein, UniProt Q14995 1-579, looked up)
Nuclear receptor subfamily 1 …: MEVNAGGVIAYISSSSSASSPASCHSEGSENSFQSSSSSVPSSPNSSNSDTNGNPKNGDLANIEGILKNDRIDCSMKTSKSSAPGMTKSHSGVTKFSGMVLLCKVCGDVASGFHYGVHACEGCKGFFRRSIQQNIQYKKCLKNENCSIMRMNRNRCQQCRFKKCLSVGMSRDAVRFGRIPKREKQRMLIEMQSAMKTMMNSQFSGHLQNDTLVEHHEQTALPAQEQLRPKPQLEQENIKSSSPPSSDFAKEEVIGMVTRAHKDTFMYNQEQQENSAESMQPQRGERIPKNMEQYNLNHDHCGNGLSSHFPCSESQQHLNGQFKGRNIMHYPNGHAICIANGHCMNFSNAYTQRVCDRVPIDGFSQNENKNSYLCNTGGRMHLVCPMSKSPYVDPHKSGHEIWEEFSMSFTPAVKEVVEFAKRIPGFRDLSQHDQVNLLKAGTFEVLMVRFASLFDAKERTVTFLSGKKYSVDDLHSMGAGDLLNSMFEFSEKLNALQLSDEEMSLFTAVVLVSADRSGIENVNSVEALQETLIRALRTLIMKNHPNEASIFTKLLLKLPDLRSLNNMHSEELLAFKVHP
B2: RARb: Retinoic acid receptor β (NR1B2), nuclear hormone receptor cDNA driver (protein, UniProt P10826 1-455, looked up)
Retinoic acid receptor beta: MTTSGHACPVPAVNGHMTHYPATPYPLLFPPVIGGLSLPPLHGLHGHPPPSGCSTPSPATIETQSTSSEELVPSPPSPLPPPRVYKPCFVCQDKSSGYHYGVSACEGCKGFFRRSIQKNMIYTCHRDKNCVINKVTRNRCQYCRLQKCFEVGMSKESVRNDRNKKKKETSKQECTESYEMTAELDDLTEKIRKAHQETFPSLCQLGKYTTNSSADHRVRLDLGLWDKFSELATKCIIKIVEFAKRLPGFTGLTIADQITLLKAACLDILILRICTRYTPEQDTMTFSDGLTLNRTQMHNAGFGPLTDLVFTFANQLLPLEMDDTETGLLSAICLICGDRQDLEEPTKVDKLQEPLLEALKIYIRKRRPSKPHMFPKILMKITDLRSISAKGAERVITLKMEIPGSMPPLIQEMLENSEGHEPLTPSSSGNTAEHSPSISPSSVENSGVSQSPLVQ
B3: RVRa: Rev-Erb α (NR1D1), cDNA driver (protein, UniProt P20393 1-614, looked up)
Nuclear receptor subfamily 1 …: MTTLDSNNNTGGVITYIGSSGSSPSRTSPESLYSDNSNGSFQSLTQGCPTYFPPSPTGSLTQDPARSFGSIPPSLSDDGSPSSSSSSSSSSSSFYNGSPPGSLQVAMEDSSRVSPSKSTSNITKLNGMVLLCKVCGDVASGFHYGVHACEGCKGFFRRSIQQNIQYKRCLKNENCSIVRINRNRCQQCRFKKCLSVGMSRDAVRFGRIPKREKQRMLAEMQSAMNLANNQLSSQCPLETSPTQHPTPGPMGPSPPPAPVPSPLVGFSQFPQQLTPPRSPSPEPTVEDVISQVARAHREIFTYAHDKLGSSPGNFNANHASGSPPATTPHRWENQGCPPAPNDNNTLAAQRHNEALNGLRQAPSSYPPTWPPGPAHHSCHQSNSNGHRLCPTHVYAAPEGKAPANSPRQGNSKNVLLACPMNMYPHGRSGRTVQEIWEDFSMSFTPAVREVVEFAKHIPGFRDLSQHDQVTLLKAGTFEVLMVRFASLFNVKDQTVMFLSRTTYSLQELGAMGMGDLLSAMFDFSEKLNSLALTEEELGLFTAVVLVSADRSGMENSASVEQLQETLLRALRALVLKNRPLETSRFTKLLLKLPDLRTLNNMHSEKLLSFRVDAQ
B4: RARa: Retinoic acid receptor α (NR1B1), nuclear hormone receptor cDNA driver (protein, UniProt P10276 1-462, looked up)
Retinoic acid receptor alpha: MASNSSSCPTPGGGHLNGYPVPPYAFFFPPMLGGLSPPGALTTLQHQLPVSGYSTPSPATIETQSSSSEEIVPSPPSPPPLPRIYKPCFVCQDKSSGYHYGVSACEGCKGFFRRSIQKNMVYTCHRDKNCIINKVTRNRCQYCRLQKCFEVGMSKESVRNDRNKKKKEVPKPECSESYTLTPEVGELIEKVRKAHQETFPALCQLGKYTTNNSSEQRVSLDIDLWDKFSELSTKCIIKTVEFAKQLPGFTTLTIADQITLLKAACLDILILRICTRYTPEQDTMTFSDGLTLNRTQMHNAGFGPLTDLVFAFANQLLPLEMDDAETGLLSAICLICGDRQDLEQPDRVDMLQEPLLEALKVYVRKRRPSRPHMFPKMLMKITDLRSISAKGAERVITLKMEIPGSMPPLIQEMLENSEGLDTLSGQPGGGGRDGGGLAPPPGSCSPSLSPSSNRSSPATHSP

The molecules below were run on mNPY promoter (assay: NHR-promoter luciferase screen, mNPY promoter). Settings: Table 6d; luciferase activity relative to control (control = 1.00).
Type: cell-based, mouse
Method: (§1) The use, feasibility, and reproducibility of the functional NHR-promoter screen in a 48-well format have been tested validated. Briefly, there were co-expressed 50 ng of each NHR/NHR homodimer or NHR/RXR heterodimer with 100 ng promoter/luciferase construct and 50 ng of LacZ (as a control for transfection efficiency) in CV-1 cells using Fugene HD (Roche) as a transfection reagent (alternatively or additionally, a CMV-YFP construct can be used as a transfection control). Each of the nuclear hormone receptors that were used in these experiments was cloned into a pcDNA3.1 vector and comprised a C-terminally linked V5H6 tag. Twenty-four hours after transfection, appropriate ligands were added, where applicable, (see Table 5 for various ligands and concentrations and after 48 hrs, samples were assayed for luciferase and LacZ activity. To measure for luciferase activity 15 ul of sample was added to 30 ul of luciferase buffer (20 mM tricine, 1.07 mM MgCarbonate, 2.67 mM MgSulfate, 0.1 mM Naz-EDTA, 5 mM DTT, 5 mM ATP, 0.15 mg/ml CoA, 0.5 mM Luciferin), mixed briefly, and run in a Perkin Elmer Victor 5 luminometer. Thus, the functional NHR-promoter screen was used to observe the transcriptional activity of 29 promoters from various physiological pathways including inflammation, lipid and sugar metabolism, cholesterol transport, xenobiotic metabolism, and circadian rhythm.
(§2) The promoters that facilitate transcription of the indicated gene products that were tested using the protocols described herein are listed in the first row of the table. The nuclear hormone receptors and, where applicable, ligands that were assayed for their transcriptional effects on the promoters are listed in the first column of the table. The data represent the luciferase activity of each sample normalized to both the lacZ activity of that sample and to a control, e.g., no NHR or ligand, as customary in the art. As described previously, these normalizations allow the transcriptional activity of each reporter cell to be compared to other samples.
(§3) Tables 7-40 show the transcriptional effects of the hormone receptors, and, where applicable, ligands (orphan receptors are screened without ligand), on each individual promoter. […] The control data of each table are shown in their last rows.

| Molecule | Results of assays of transcription factor (+/- ligand) with mNPY |
| --- | --- |
| B1 | 1.67 |
| B2 | 1.17 |
| B3 | 1.09 |
| B4 | 1.24 |

Same assay, conditions: mNPY promoter; HR component with or without ligand

| Molecule | Luc. act., normalized to lacZ |
| --- | --- |
| B1 | 140.6 |
| B2 | 97.9 |
| B3 | 91.9 |
| B4 | 103.8 |

Same assay, conditions: mNPY promoter; HR component with or without ligand; relative to control

| Molecule | Normalized Luc. act., normalized to control |
| --- | --- |
| B1 | 1.7 |
| B2 | 1.2 |
| B3 | 1.1 |
| B4 | 1.2 |

What follows are molecules tested on mDio2 promoter (assay: NHR-promoter luciferase screen, mDio2 promoter). Settings: Dio2; HR component without or with its ligand.
Type: cell-based, mouse
Method: as §1, §2, §3

| Molecule | Luc. act., normalized to lacZ | Normalized Luc. act., normalized to control |
| --- | --- | --- |
| B1 | 19.7 | 1.3 |
| B2 | 32.7 | 2.1 |
| B3 | 21.5 | 1.4 |
| B4 | 40.3 | 2.6 |

Same assay, conditions: transcription factor +/- ligand; control = 1.00

| Molecule | mDio2 promoter reporter activity |
| --- | --- |
| B1 | 1.26 |
| B2 | 2.08 |
| B3 | 1.37 |
| B4 | 2.56 |

Each molecule was assayed on hMyoD promoter (assay: NHR-promoter luciferase screen, hMyoD promoter). Settings: MyoD promoter reporter; co-transfected HR, without or with its ligand.
Type: cell-based, human
Method: as §1, §2, §3

| Molecule | Luc. act., normalized to lacZ |
| --- | --- |
| B1 | 80.9 |
| B2 | 123.5 |
| B3 | 75.0 |
| B4 | 99.3 |

Same assay, conditions: MyoD promoter reporter; co-transfected HR, without or with its ligand; relative to control

| Molecule | Normalized Luc. act., normalized to control |
| --- | --- |
| B1 | 1.3 |
| B2 | 1.9 |
| B3 | 1.2 |
| B4 | 1.6 |

Same assay, conditions: hMyoD promoter-luciferase, CV-1 cells, NHR +/- ligand, control = 1.00

| Molecule | luciferase activity normalized to lacZ activity and to a control, hMyoD |
| --- | --- |
| B1 | 1.28 |
| B2 | 1.95 |
| B3 | 1.18 |
| B4 | 1.57 |

What follows are molecules tested on mUCP2 promoter (assay: NHR-promoter luciferase screen, mUCP2 promoter). Settings: mUCP2 promoter reporter; co-transfected HR, with or without its ligand.
Type: cell-based, mouse
Method: as §1, §2, §3

| Molecule | Luc. act., normalized to lacZ |
| --- | --- |
| B1 | 174.4 |
| B2 | 277.3 |
| B3 | 143.0 |
| B4 | 232.0 |

Same assay, conditions: mUCP2 promoter reporter; co-transfected HR, with or without its ligand; relative to control

| Molecule | Normalized Luc. act., normalized to control |
| --- | --- |
| B1 | 1.6 |
| B2 | 2.5 |
| B3 | 1.3 |
| B4 | 2.1 |

Same assay, conditions: mUCP2 promoter-luciferase, CV-1 cells, NHR +/- ligand, control = 1.00

| Molecule | luciferase activity normalized to lacZ activity and to a control, mUCP2 |
| --- | --- |
| B1 | 1.59 |
| B2 | 2.52 |
| B3 | 1.30 |
| B4 | 2.11 |

Each molecule was assayed on MCP-1 promoter (assay: NHR-promoter luciferase screen, MCP-1 promoter). Settings: MCP-1 promoter reporter; HR without or with its ligand; relative to control.
Type: cell-based
Method: as §1, §2, §3

| Molecule | Normalized Luc. act., normalized to control |
| --- | --- |
| B1 | 1.6 |
| B2 | 1.8 |
| B3 | 1.4 |
| B4 | 1.7 |

Same assay, conditions: MCP-1 promoter reporter; hormone receptor (HR) without or with its ligand

| Molecule | Luc. act., normalized to lacZ |
| --- | --- |
| B1 | 170.4 |
| B2 | 197.0 |
| B3 | 149.4 |
| B4 | 182.3 |

Same assay, conditions: transcription factor +/- ligand; control = 1.00

| Molecule | mMCP-1 promoter reporter activity |
| --- | --- |
| B1 | 1.59 |
| B2 | 1.84 |
| B3 | 1.40 |
| B4 | 1.70 |

These molecules were tested on hPPARg2 promoter (assay: NHR-promoter luciferase screen, hPPARg2 promoter). Settings: PPARG2 promoter; hormone receptor with or without its ligand.
Type: cell-based, human
Method: as §1, §2, §3

| Molecule | Luc. act., normalized to lacZ |
| --- | --- |
| B1 | 1.0 |
| B2 | 3.4 |
| B3 | 1.5 |
| B4 | 3.5 |

Same assay, conditions: PPARG2 promoter; hormone receptor with or without its ligand; relative to control

| Molecule | Normalized Luc. act., normalized to control |
| --- | --- |
| B1 | 0.5 |
| B2 | 1.7 |
| B3 | 0.8 |
| B4 | 1.7 |

Same assay, conditions: Table 6d; luciferase activity relative to control (control = 1.00)

| Molecule | Results of assays of transcription factor (+/- ligand) with hPPARg2 |
| --- | --- |
| B1 | 0.48 |
| B2 | 1.72 |
| B3 | 0.76 |
| B4 | 1.73 |
